Substrate: CC(=O)Oc1ccc([N+](=O)[O-])cc1
Experiment: purified protein
Format: biochemical, Alkalibacterium sp. SL3
Conditions: 50 mM Tris-HCl pH 9.0, 30 °C, 5 min, 0.05–5 mM substrate

B1: EstSL3 (rEstSL3) (Alkalibacterium sp. SL3) (protein)
chain: MKINKNDTLLFIGDSITDVGRDRMDGEDLGKGFPLMVASHLQSRYPAKRLTVLNRGIGGDSLKDLKRRWEDDCLITNPDIVTLLIGVNDTWRNQNDGVELTDEELDEFESDYRFLLKSLHQRTDARVILMESFVLPYPKRRVGWRNDLDKRIQIVRKMARDYQTELIPLDGLLNAAGIRDGFSYYTGDDGVHPTVAGHGLIANSWLKAVDE
notes: His6-tagged from pET-28a(+) (NcoI-HindIII), E. coli BL21(DE3), Ni-NTA; internal peptides LTVLNRGIGGDSLKDLK, TDARVILMESFVLPYPKR, VGWRNDLDK; catalytic Ser15, Asp189, His192
B1 gave a Km of 150 ± 10 µM and a kcat of 307.69 s⁻¹.

Reference: PMC4768246, “A novel cold-adapted and highly salt-tolerant esterase from Alkalibacterium sp. SL3 from the sediment of a soda lake” (Scientific Reports, 2016)
